This note sets out measurements from paper PMC3594340 (Journal of the American Society for Mass Spectrometry, 2013).

The data set concerns the molecule itself. The data set is described as follows: cross-linking.

B1: SO_2176 from Shewanella oneidensis (natural protein)
chain: MAIQSKYSNTQVESLIAEILVVLEKHKAPTDLSLMALGNCVTHLLERKVPSESRQAVAEQFAKALAQSVKSN
Regarding B1, the binding result is “binds”.
